# Literature values in paper PMC3382066.
# “And” between values parts separate entries of the source, which are not always exact repeats. Equal values may be shown once.
# Tests used:
# calmodulin = calmodulin (UniProt P0DP23)
# [1] = molecular target: smooth muscle myosin truncated fragment (UniProt P35749)
# [2] = molecular target: smooth muscle myosin (unphosphorylated) (Gallus gallus) (UniProt P10587)
# UniProt P10587, sequence (P10587 2-1979): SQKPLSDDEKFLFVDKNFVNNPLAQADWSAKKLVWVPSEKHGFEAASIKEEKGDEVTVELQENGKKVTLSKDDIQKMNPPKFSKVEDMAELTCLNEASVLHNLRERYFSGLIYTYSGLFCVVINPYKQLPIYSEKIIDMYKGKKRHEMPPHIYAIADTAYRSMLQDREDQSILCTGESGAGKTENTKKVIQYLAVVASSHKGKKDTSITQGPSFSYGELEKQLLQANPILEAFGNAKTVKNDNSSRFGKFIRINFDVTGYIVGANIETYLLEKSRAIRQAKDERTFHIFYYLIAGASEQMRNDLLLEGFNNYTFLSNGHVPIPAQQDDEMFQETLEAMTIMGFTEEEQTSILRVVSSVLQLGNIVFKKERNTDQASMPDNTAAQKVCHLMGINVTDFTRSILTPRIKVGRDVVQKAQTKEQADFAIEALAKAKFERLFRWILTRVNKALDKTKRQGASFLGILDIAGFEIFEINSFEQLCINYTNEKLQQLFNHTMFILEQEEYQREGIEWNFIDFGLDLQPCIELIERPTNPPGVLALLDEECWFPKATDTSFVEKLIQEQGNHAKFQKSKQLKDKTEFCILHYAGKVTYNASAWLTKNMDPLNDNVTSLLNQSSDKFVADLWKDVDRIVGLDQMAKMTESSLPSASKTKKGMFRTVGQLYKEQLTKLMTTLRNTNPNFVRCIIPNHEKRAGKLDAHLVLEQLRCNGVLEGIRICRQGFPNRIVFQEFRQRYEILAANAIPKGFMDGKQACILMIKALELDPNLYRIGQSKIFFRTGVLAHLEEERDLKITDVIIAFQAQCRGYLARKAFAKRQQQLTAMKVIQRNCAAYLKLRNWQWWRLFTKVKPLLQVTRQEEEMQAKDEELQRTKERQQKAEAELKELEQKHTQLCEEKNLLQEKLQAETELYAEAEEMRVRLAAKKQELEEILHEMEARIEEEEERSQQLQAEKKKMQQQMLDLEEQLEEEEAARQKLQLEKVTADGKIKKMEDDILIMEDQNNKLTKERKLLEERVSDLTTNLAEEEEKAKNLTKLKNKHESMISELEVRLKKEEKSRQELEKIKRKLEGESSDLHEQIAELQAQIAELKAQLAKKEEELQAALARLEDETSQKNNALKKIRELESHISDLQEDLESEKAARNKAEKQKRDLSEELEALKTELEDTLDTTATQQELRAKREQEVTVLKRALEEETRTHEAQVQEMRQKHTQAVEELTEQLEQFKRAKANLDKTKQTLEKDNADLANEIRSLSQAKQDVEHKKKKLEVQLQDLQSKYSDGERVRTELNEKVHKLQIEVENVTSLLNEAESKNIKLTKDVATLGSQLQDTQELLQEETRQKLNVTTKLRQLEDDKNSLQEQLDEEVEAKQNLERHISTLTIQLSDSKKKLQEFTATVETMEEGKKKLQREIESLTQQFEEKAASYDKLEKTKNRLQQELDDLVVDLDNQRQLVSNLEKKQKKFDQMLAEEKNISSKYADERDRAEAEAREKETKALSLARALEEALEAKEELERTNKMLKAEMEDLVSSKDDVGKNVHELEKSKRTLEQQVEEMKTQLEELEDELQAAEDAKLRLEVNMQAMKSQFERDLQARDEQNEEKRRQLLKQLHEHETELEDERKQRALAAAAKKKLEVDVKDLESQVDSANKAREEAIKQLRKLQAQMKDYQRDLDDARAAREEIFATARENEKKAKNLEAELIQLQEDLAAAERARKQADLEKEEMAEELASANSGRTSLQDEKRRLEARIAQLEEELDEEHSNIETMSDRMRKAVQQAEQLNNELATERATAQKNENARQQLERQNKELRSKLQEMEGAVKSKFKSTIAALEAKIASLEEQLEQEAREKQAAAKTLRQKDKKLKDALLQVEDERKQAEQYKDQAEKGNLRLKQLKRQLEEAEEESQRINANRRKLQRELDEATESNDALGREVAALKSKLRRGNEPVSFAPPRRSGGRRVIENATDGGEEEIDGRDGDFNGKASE
# UniProt P35749, sequence (P35749 1-1175): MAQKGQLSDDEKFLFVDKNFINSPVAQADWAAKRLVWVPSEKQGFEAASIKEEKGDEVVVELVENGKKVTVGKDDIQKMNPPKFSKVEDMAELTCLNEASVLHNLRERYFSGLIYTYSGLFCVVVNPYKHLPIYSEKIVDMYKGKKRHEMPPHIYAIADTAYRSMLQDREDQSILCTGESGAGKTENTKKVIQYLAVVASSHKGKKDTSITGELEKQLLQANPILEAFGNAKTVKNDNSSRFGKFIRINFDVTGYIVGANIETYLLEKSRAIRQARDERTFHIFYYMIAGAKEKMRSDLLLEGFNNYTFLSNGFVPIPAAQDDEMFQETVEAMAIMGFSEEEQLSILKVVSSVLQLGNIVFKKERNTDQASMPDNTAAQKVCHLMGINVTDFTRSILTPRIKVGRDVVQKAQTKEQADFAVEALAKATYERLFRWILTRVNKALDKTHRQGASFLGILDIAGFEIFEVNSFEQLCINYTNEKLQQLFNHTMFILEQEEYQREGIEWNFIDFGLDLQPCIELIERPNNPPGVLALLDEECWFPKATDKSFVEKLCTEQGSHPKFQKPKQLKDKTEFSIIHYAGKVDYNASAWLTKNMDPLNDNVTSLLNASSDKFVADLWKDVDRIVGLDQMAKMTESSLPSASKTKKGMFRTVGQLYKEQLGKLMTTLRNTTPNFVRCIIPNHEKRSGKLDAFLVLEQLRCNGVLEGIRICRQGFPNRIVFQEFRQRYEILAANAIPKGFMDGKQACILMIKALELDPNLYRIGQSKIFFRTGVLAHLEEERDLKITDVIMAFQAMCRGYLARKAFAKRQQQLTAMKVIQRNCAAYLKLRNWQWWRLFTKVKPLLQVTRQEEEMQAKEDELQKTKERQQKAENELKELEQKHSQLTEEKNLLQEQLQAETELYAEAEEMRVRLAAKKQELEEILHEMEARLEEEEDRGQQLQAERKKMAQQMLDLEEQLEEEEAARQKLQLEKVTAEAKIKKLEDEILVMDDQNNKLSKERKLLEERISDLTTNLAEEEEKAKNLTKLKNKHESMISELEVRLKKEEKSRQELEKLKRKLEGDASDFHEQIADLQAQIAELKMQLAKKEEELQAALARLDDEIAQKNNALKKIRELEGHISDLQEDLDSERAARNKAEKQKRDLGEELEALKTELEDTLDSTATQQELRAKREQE
# MLCK, sequence (P11799 935-1906): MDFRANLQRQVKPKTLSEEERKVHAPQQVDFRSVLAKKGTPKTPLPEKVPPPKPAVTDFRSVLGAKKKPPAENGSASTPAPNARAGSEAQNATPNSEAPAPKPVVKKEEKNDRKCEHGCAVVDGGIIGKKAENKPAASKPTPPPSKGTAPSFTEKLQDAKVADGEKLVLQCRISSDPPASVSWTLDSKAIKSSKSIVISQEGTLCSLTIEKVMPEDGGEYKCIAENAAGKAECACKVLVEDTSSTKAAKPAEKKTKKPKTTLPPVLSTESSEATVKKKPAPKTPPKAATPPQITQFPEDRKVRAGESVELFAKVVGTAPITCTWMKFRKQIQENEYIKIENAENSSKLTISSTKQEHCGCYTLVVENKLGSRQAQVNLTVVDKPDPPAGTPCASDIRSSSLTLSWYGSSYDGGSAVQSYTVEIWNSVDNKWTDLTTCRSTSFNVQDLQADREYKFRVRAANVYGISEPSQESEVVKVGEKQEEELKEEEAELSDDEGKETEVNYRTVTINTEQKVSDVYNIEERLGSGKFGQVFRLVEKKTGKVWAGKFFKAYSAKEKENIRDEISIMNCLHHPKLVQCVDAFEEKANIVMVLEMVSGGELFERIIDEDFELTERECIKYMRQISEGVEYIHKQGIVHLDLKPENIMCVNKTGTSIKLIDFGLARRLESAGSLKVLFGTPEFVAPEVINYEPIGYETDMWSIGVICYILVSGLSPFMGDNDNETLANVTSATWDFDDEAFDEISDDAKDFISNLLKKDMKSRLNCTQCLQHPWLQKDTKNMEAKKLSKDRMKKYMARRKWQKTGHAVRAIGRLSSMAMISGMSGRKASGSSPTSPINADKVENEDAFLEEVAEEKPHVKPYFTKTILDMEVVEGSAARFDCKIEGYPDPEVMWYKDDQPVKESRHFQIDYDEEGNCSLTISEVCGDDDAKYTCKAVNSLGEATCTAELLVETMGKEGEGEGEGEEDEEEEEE
substance,measurement,setting,value
MLCK N-terminal actin-binding region (from UniProt Q15746),Kd,calmodulin,5 µM
telokin telokin (from UniProt Q15746),Ki,[1],40 µM and 20 µM
MLCK (from UniProt P11799),Kd,[2],0.8 µM
